Measurements: patent US20140120109A1 (Regeneron, published 2014)

T1: full length human TL1A expressed on HEK293 cells (human, UniProt O95150 1-251)
T1 construct: also called HEK293/hTL1A; cell-surface hTL1A
T1 sequence: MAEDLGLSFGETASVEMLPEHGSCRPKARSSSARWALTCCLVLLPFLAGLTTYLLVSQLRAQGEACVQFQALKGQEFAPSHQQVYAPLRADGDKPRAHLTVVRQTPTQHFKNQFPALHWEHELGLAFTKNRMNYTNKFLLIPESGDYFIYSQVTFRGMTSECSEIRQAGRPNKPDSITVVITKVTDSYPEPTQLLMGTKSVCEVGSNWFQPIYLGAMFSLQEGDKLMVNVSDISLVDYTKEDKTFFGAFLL

T2: cynomolgus monkey TL1A, soluble, CHO-expressed, residues 72-251 of SEQ ID NO:248 with N-terminal His6-tag (cynomolgus monkey (Macaca fascicularis), UniProt O95150 72-251 (human entry))
T2 construct: also called MfTL1A; MfTL1A (CHO)
T2 chain: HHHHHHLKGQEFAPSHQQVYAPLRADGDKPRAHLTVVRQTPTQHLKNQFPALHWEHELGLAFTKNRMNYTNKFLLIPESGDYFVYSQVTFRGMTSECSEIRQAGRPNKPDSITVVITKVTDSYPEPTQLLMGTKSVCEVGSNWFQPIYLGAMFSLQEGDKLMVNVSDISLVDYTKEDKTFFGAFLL

T3: mouse TL1A, soluble, CHO-expressed, residues 76-252 of SEQ ID NO:250 with N-terminal His6-tag (mouse, UniProt Q5UBV8 76-252)
T3 construct: also called mTL1A; mTL1A (CHO)
T3 sequence: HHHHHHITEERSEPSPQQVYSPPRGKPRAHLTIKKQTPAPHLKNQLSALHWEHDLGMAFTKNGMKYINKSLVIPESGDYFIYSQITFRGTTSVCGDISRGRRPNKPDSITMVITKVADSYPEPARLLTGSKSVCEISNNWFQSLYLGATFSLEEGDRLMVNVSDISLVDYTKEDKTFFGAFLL


Columns and labels:
[1] = molecular target: T1, full length human TL1A expressed on …; test: flow, HEK293/hTL1A, mAb 0.1 ug/ml + 3 ug/ml soluble hTL1A
Description: (§1) Human embryonic kidney 293 cells stably transfected to over-express cell-surface hTL1A were first stained in a flow cytometric experiment with eight anti-hTL1A antibodies at four concentrations (1, 0.1, 0.01, and 0.003 μg/ml). […] The lowest antibody concentration providing significant staining levels was then used in a competition binding experiment. A negative isotype control antibody (human IgG4) was used at 1 μg/ml to define the background signal. For the competition experiment, eight antibody samples, at the minimal concentrations identified above, were first treated with soluble hTL1A expressed from CHO cells at concentrations ranging from 0.03 μg/ml to 10 μg/ml. After pre-incubation for 30 min on ice, the antibody/hTL1A mixture was added to 293/HEK-hTL1A cells that had been isolated by centrifugation in a 96-well conical plate. After incubation for an additional 10 minutes on ice, the cells were washed. The secondary reagent, anti-h Fcγ-APC F(ab′)₂, was added to all wells at a 200-fold dilution to detect bound antibodies. Samples were incubated for 15 minutes on ice, away from light, and then washed. Cells were processed on an BD™ LSR II Flow Cytometer (BD Biosciences) to detect anti-hTL1A antibodies bound to the cell surface, and data were analyzed using FlowJo software (version 8.8.6; Tree Star Inc.). Maximum signal: Anti-hTL1A antibody binding in the absence of soluble hTL1A; Minimum signal: Signal recorded when […] of isotype control antibody was added in place of the anti-hTL1A antibody. NT: Not tested.

[2] = molecular target: T1, full length human TL1A expressed on …; test: flow, HEK293/hTL1A, mAb 0.1 ug/ml + 0.3 ug/ml soluble hTL1A
Description: as §1

[3] = molecular target: T1, full length human TL1A expressed on …; test: flow, HEK293/hTL1A, mAb 0.1 ug/ml + 1 ug/ml soluble hTL1A
Description: as §1

[4] = molecular target: T1, full length human TL1A expressed on …; test: flow, HEK293/hTL1A, mAb 0.1 ug/ml, no soluble hTL1A (maximum signal)
Description: as §1

[5] = molecular target: T1, full length human TL1A expressed on …; test: flow, HEK293/hTL1A, mAb 0.1 ug/ml + 0.1 ug/ml soluble hTL1A
Description: as §1

[6] = molecular target: T1, full length human TL1A expressed on …; test: flow, HEK293/hTL1A, mAb 1 ug/ml, no soluble hTL1A (maximum signal)
Description: as §1

[7] = molecular target: T1, full length human TL1A expressed on …; test: flow, HEK293/hTL1A, mAb 1 ug/ml + 0.3 ug/ml soluble hTL1A
Description: as §1

[8] = molecular target: T1, full length human TL1A expressed on …; test: flow, HEK293/hTL1A, mAb 1 ug/ml + 3 ug/ml soluble hTL1A
Description: as §1

[9] = molecular target: T1, full length human TL1A expressed on …; test: flow, HEK293/hTL1A, mAb 1 ug/ml + 1 ug/ml soluble hTL1A
Description: as §1

[10] = molecular target: T2, cynomolgus monkey TL1A, soluble, …; test: SPR 37C, mAb captured; kd set at 1e-6 1/s
Description: Measurements were conducted on a T100 BIACORE™ instrument. […] Kinetic association (kₐ) and dissociation (kd) rate constants were determined by fitting the data to a 1:1 binding model using BIAevaluation 4.1 curve fitting software (BIAcore Life Sciences). Molar concentrations of TL1A/Fhm used in the data fitting assumed a monomeric state for TL1A in solution. Binding dissociation equilibrium constants (KD) and dissociative half-lives (t_{1/2}) were calculated from the kinetic rate constants as: KD (M)=kd/kₐ; and t_{1/2} (min)=[In2/(60*kd)].

[11] = molecular target: T1, full length human TL1A expressed on …; test: flow, HEK293/hTL1A, mAb 1 ug/ml + 0.03 ug/ml soluble hTL1A
Description: as §1

[12] = molecular target: T3, mouse TL1A, soluble, CHO-expressed, …; test: SPR 25C, mAb captured
Summary of the method: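 Biacore T100 SPR with captured mAb and soluble TL1A/Fhm analyte; ka and kd fitted to a 1:1 model assuming monomeric TL1A. KD = kd/ka; t1/2 (min) = ln2/(60·kd).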

| Binder | MFI [1] | MFI [2] | MFI [3] | MFI [4] | MFI [5] | MFI [6] | MFI [7] | MFI [8] | MFI [9] | Kd [10] [pM] | t1/2 [10] [h] | MFI [11] | binding result [12] | Kd [12] [pM] | t1/2 [12] [h] |
| --- | --- | --- | --- | --- | --- | --- | --- | --- | --- | --- | --- | --- | --- | --- | --- |
| H4H1804N (antibody, human IgG4 S228P, V domains shown, human IgG4(S108P) form of H2M1804N) VH: QVQLHQWGAGLLKPSETLSLTCAVSGVSFSDYHWAWIRQSPGKGLEWIGDINHRGRTNYNPSLKSRVTISLDTSGNPFSLKLTSVTAADTAVYYCARDFPNWVFDSWGQGILVTVSS VL: EIVLSQSPGTLSLSPGERATLSCRASQSVSSSFLAWYQQYPGQAPRLLIYGASRRATGIPDRFRGSGSGTDFTLTISRLEPEDFAVYYCQQYGSSPLTFGGGTKVENK | 28.9 | 33.5 | 33.7 | 127 | 51.1 |  |  |  |  |  |  |  |  |  |  |
| H4H1742P (antibody, human IgG4 S228P, V domains shown) VH: EVQLVESGGGLVQPGGSLRLSCAASGFTFSNYVMNWVRQAPGKGLEWVSVISGSGGSTHYADSVKGRFTISRDNSKDALYLQMNSLRAEDTAVYYCAKGPLEAYYYYNGMDVWGQGTTVTVSS VL: DIQLTQSPSFLSASVGDRVTITCWASQAISSYLAWYQHKPGRAPKLLIYSTSTLQSGVPSRFSGSGSGTEFTLTISSLQPEDFATYYCQQLNSYPTFGQGTKLEIK |  |  |  |  |  | 126 | 44.7 | 19.9 | 32.7 | ≤ 4.45 | ≥ 192 | 126 |  |  |  |
| H4H1681N (antibody, human IgG4 S228P, V domains shown) VH: EVQLLESGGGLVQPGKSLRLSCAVSGFTFSTYGMNWVRQAPGKGLEWVSSISGTGRTTYHADSVQGRFTVSRDNSKNILYLQMNSLRADDTAVYFCTKERGDYYYGVFDYWGQGTLVTVSS VL: DIQMTQSPSTLSASVGDRVTITCRASQTISSWLAWYQQTPEKAPKLLIYAASNLQSGVPSRFSGSGSGTEFTLTISSLQPDDFATYYCQQYHRSWTFGQGTKVEIT |  |  |  |  |  | 320 | 236 | 28.5 | 80.9 |  |  | 318 | no binding (tested: up to 100 nM) |  |  |
| H4H1725P (antibody, human IgG4 S228P, V domains shown) VH: QVQLVQSGAEVKKPGASVKVSCKASGYTFTGYYMHWVRQAPGQGLEWMGWIKPKSGGTNYVQKFQGRVTMTRDTSINTAYMELNNLKSDDTAVYYCATGGSQDASDFWGQGTMVTVSS VL: DIQMTQSPSSVSASVGGRVTITCRASQDISIWLAWYQQKPGKAPNLLIYAASSLQSGVPSRFSGSGSGTDFTLTISSLQPEDFATYYCQQADSFPLTFGGGTKVEIK | 34.9 | 40.7 | 29.2 | 211 | 84.5 |  |  |  |  |  |  |  |  |  |  |
| H4H1704N (antibody, human IgG4 S228P, V domains shown, human IgG4(S108P) form of H2M1704N) VH: EVQLVESGGGLVQPGGSLRLSCAVSGFTFSSYWMSWVRQAPGKGLEWVANIKEDGSEKNYVDSVKGRFTLSSDNAKNSLYLQMNSLRAEDTAVYYCAREDYDSYYKYGMDVWGQGTAVIVSS VL: not shown | 22.6 | 31.5 | 26 | 116 | 132 |  |  |  |  | ≤ 0.93 | ≥ 192 |  |  | 194 | 0.767 |
| H4H1745P (antibody, human IgG4 S228P, V domains shown) VH: EVQLVESGGGLVQPGGSLRLSCAASGFTFSSYAMTWVRQAPGKGLEWVSGVSGRGGSTYYADSVKGRFTISRDNSKNTLYLQMNSLRAEDTAVYYCAYWDISSFDYWGQGTLVTVSS VL: DIQLTQSPSFLSASVGDRVTITCWASQGISTYLAWYQQKPGKTPKLLIYAASTLQSGVPSRFSGSGSGTDFTLTISSLQPEDFATYYCQQFNSYPLTFGGGTKVEIK |  |  |  |  |  | 87.2 | 115 | 19.5 | 26.9 |  |  | 80 |  |  |  |

Now from value to binder:

| MFI [1] | MFI [2] | MFI [3] | MFI [4] | MFI [5] | MFI [6] | MFI [7] | MFI [8] | MFI [9] | Kd [10] [pM] | t1/2 [10] [h] | MFI [11] | binding result [12] | Kd [12] [pM] | t1/2 [12] [h] | Binder |
| --- | --- | --- | --- | --- | --- | --- | --- | --- | --- | --- | --- | --- | --- | --- | --- |
|  |  |  |  |  |  |  |  |  | ≤ 0.804 | ≥ 192 |  |  |  |  | H4H1818N (antibody, human IgG4 S228P, V domains shown, human IgG4(S108P) form of H2M1818N) VH: RLQLVESGGGLVKPGGSLKLSCAASGFTISDYYMSWIRQAPGKGLEWVSYIGGSGSTIYYADSVKGRFTISRDNAKNSLYLQMNSLRAEDTAVYYCAREDADSYYYYGMDVWGQGTTVTVSS VL: not shown |
| 23.6 | 36.8 | 25.1 | 158 | 60.2 |  |  |  |  |  |  |  | no binding (tested: up to 100 nM) |  |  | H4H1805N (antibody, human IgG4 S228P, V domains shown, human IgG4(S108P) form of H2M1805N) VH: QVQLQQWGAGLLKPSETLSLTCAVYGGSFTGFYWSWIRQPPGKGLEWIGEINHRGNTNYNPSLKSRVTMSVDTSKNQFSLNMISVTAADTAMYFCASPFYDFWSGSDYWGQGTLVTVSS VL: DIMLTQTPLTSPVTLGQPASISCKSSQSLVHSDGNTYLSWLQQRPGQPPRLLFYKISNRFSGVPDRFSGSGAGTDFTLKISRVEAEDVGVYYCMQATQFPLTFGGGTKVEIK |
|  |  |  |  |  | 110 | 23.6 | 25.2 | 29.1 |  |  | 85.3 | no binding (tested: up to 100 nM) |  |  | H4H1817N (antibody, human IgG4 S228P, V domains shown, human IgG4(S108P) form of H2M1817N) VH: QVQLQQWGAGLLKPSETLSLTCAVSGGSFSDYFWTWIRQPPGKGLEWIGEISHSGRTNYNPSLKSRVTISVDTSMSQFSLKMTSVTAADSAVYYCARDYPNWVFDYWGQGTLVTVSS VL: EIELTQSPGTLSLSPGEGATLSCRASQSVFNSYLAWYQQKPGQAPRLLIYGASRRATGIPDRFSGSGSGTDFTLTISRLEPGDFAVYFCQQYGNSPLTFGGGTKVEIK |
